B1: rCRT: recombinant CRT protein, which binds to the surface of the cells (protein, UniProt P27797 18-417, looked up)
Calreticulin: EPAVYFKEQFLDGDGWTSRWIESKHKSDFGKFVLSSGKFYGDEEKDKGLQTSQDARFYALSASFEPFSNKGQTLVVQFTVKHEQNIDCGGGYVKLFPNSLDQTDMHGDSEYNIMFGPDICGPGTKKVHVIFNYKGKNVLINKDIRCKDDEFTHLYTLIVRPDNTYEVKIDNSQVESGSLEDDWDFLPPKKIKDPDASKPEDWDERAKIDDPTDSKPEDWDKPEHIPDPDAKKPEDWDEEMDGEWEPPVIQNPEYKGEWKPRQIDNPDYKGTWIHPEIDNPEYSPDPSIYAYDNFGVLGLDLWQVKSGTIFDNFLITNDEAYAEEFGNETWGVTKAAEKQMKDKQDEEQRLKEEEEDKKRKEEEEAEDKEDDEDKDEDEEDEEDKEEDEEEDVPGQAKDEL

Experiments:
[1] = tested on: CRT; assay: Inhibitory profile of CRT exposure (pre-incubation with inhibitors, immunocytofluorometry); assay type: cell-based; settings: pre-incubation for 1 h
Procedure: FIG. 3S: Inhibitory profile of CRT exposure. Cells were treated with mitoxantrone or inhibitors of PP1/GADD34, after pre-incubation for 1 h with the indicated inhibitors of protein synthesis (cycloheximide), RNA synthesis (actinomycin D), microtubuli (nocodazol), or the actin cytoskeleton (latrunculin A). Then, CRT expression was determined by immunocytofluorometry. Results are means of triplicates±SD for one representative experiment out of three.

[2] = tested on: CT26 tumour cells; assay: Anti-tumour vaccination: dying treated CT26 cells injected in one flank, later challenge with live tumour cells; assay type: in vivo, BALB/c mice; settings: dying CT26 cells treated with agent injected into one flank, live tumour cells in opposite flank 8 days later
[3] = tested on: CT26 cells; assay: Phagocytosis of CT26 tumour cells by dendritic cells (FACS, double positive cells); assay type: cell-based, BALB/c mice
Procedure: FIG. 3A, FIG. 3B: Correlation between tumour cell phagocytosis and CRT exposure. Tumour cells labelled with Cell Tracker Green were cultured with CD11c-expressing DC and the percentage of DC taking up tumour cells was determined (A) and correlated with the CRT surface exposure (B), measured as in FIG. 2E.
Mitoxantrone-treated or control cells were incubated with a blocking chicken anti-CRT antibody, followed by detection of phagocytosis by CD.
Cells were transfected with the indicated siRNAs and optionally treated with rCRT, followed by immunoblot (FIG. 3D) detection of surface CRT (FIG. 3E) and phagocytosis by DC (FIG. 3F). Results are triplicates (X±SD) and representative of three independent experiments. * denotes statistically significant differences using the Student t′ test at p<0.001.
BM cells were flushed from the tibias and femurs of BALB/c mice with culture medium composed of RPMI 1640 medium (Invitrogen Life Technologies) supplemented with 10% heat-inactivated FBS (Invitrogen), sodium pyruvate, 50 μM 2-ME (Sigma), 10 mM HEPES (pH 7.4), and penicillin/streptomycin (Invitrogen). After one centrifugation, BM cells were resuspended in Tris-ammonium chloride for 2 min to lyse RBC. After one more centrifugation, BM cells (1×10^6 cells/ml) were cultured in medium supplemented with 100 ng/ml recombinant mouse FLT3 ligand (R&D systems) in 6-well plates (Costar Corning). After 7 days, the non-adherent and loosely adherent cells were harvested with Versene, washed and transferred in 12-well plates (1.5×10^6 cells/plate) for cocultures with tumour cells.
In 12-well plates, […] adherent CT26 cells were labelled with Celltracker Green (Calbiochem) and then incubated with drugs. In some experiments viable CT26 were coated with 2 μg/10^6 cells of chicken anti-CRT antibody (ABR affinity bioreagents) or an isotype control for 30 min prior to washing and feeding to dendritic cells Cs. Alternatively CT26 cells were coated with 2 μg/10^6 cells of rCRT on ice for 30 min and washed twice prior to addition to dendritic cells. Cells were then harvested, washed three times with medium supplemented with FBS and cocultured with immature DC for 2 hours at a ratio of 1:1 and 1:5. At the end of the incubation, cells were harvested with versene, pooled with non-adherent cells present in the supernatant, washed and stained with CD11c-FITC antibody. Phagocytosis was assessed by FACS analysis of double positive cells. Phagocytic indexes refer to the ratio between values obtained at 4° C. and values obtained at 37° C. of co-incubation between DC and tumour cells.

[4] = tested on: cell surface CRT; assay: CRT exposure on enucleated CT26 cells (cytoplasts); assay type: cell-based, murine
Procedure: FIG. 5A: CRT exposure after anthracyclin treatment in the absence of a nucleus. Intact cells or enucleated cells (cytoplasts) were treated for 2 hours with mitoxantrone, followed by immunofluorescence detection of CRT exposure. Inserts show the effective removal of Hoechst 33342-stainable nuclei from the cytoplasts.
Trypsinized CT26 cells were enucleated as described in the publication of Andreau, K. et al. Contagious apoptosis facilitated by the HIV-1 envelope. Fusion-induced cell-to-cell transmission of a lethal signal. J. Cell Sci. 117, 5643-53 (2004). Briefly, cells were treated in 2 ml of complete RPMI medium containing cytochalasin B (10 μg/ml; Sigma) and DNase I (80 U/ml; Sigma). Cell suspension was adjusted to a final concentration of 5×10^6/ml and incubated at 37° C. for 45 minutes before being layered onto a previously prepared discontinuous Ficoll (Pharmacia) density gradient (3 ml of 100%, in 1 ml of 90% and 3 ml of 55% Ficoll Paque layer containing 5 μg/ml cytochalasin B and 40 U/ml DNase I; gradients were prepared in ultracentrifuge tubes and pre-equilibrated at 37° C. in a CO2 incubator overnight). […] Then the cell surface CRT was detected (see materials and methods) and the viability was determined by with propidium iodine staining (2 μg/ml, Sigma) for 5 min followed by cytofluorometric analysis. […] Phagocytosis was assessed by FACS analysis of double positive cells.

[5] = tested on: CRT; assay: CRT exposure on tumour cell lines of murine origin (MCA205, B16F10, J558); assay type: cell-based
[6] = tested on: CRT; assay: CRT exposure on tumour cell lines of human origin (HeLa, A549, HCT116); assay type: cell-based
[7] = tested on: CT26 tumours; assay: Intratumoural treatment of established CT26 tumours in immunocompetent mice; assay type: in vivo, BALB/c mice (wild type); settings: for therapeutic effect of single agent on established tumours, immunocompetent mice: single intratumoural injection, 14-day-old CT26 tumours
[8] = tested on: CT26 tumours; assay: Intratumoural treatment of established CT26 tumours in immunodeficient mice; assay type: in vivo, athymic nu/nu Balb/c mice; settings: for therapeutic effect of single agent on established tumours, nu/nu mice: single intratumoural injection
[9] = tested on: DC; assay: DC maturation ex vivo; assay type: cell-based; settings: alone, over a large range of concentrations
[10] = tested on: CT26 colon cancer cells; assay: In vivo anti-cancer vaccination: treated tumour cells in one flank and live tumour cells in opposite flank simultaneously; parameters: species or system BALB/c mice
Procedure: FIG. 4A: In vivo anti-cancer vaccination depends on CRT. CT26 colon cancer cells were transfected with the indicated siRNAs, then treated with rCRT and/or mitoxantrone (as in FIG. 3D) and the anti-tumour response was measured by simultaneously challenging BALB/c mice with mitoxantrone treated tumour cells in one flank and untreated live tumour cells in the opposite flank.
FIG. 4D: CRT-mediated amelioration of the immune response against etoposide-treated tumour cells. CT26 cells were treated for 24 h with etoposide (or PBS) and rCRT was optionally absorbed to the cell surface (inserts), followed by simultaneous injection of the etoposide ±rCRT-treated tumour cells and live tumour cells in opposite flanks and monitoring of tumour growth.
(§1) Tumours were evaluated weekly, using a caliper.

[11] = tested on: CT26 tumour cells; assay: Local immune response: tumour cells injected into foot pad, IFN-γ secretion by draining popliteal lymph node cells (ELISA); assay type: in vivo, Balb/c mice
Procedure: FIG. 4B: Priming of T cell responses depending on CRT. CT26 tumour cells were left untransfected or transfected with the indicated siRNAs, then treated with medium alone, mitomycin C or mitoxantrone and injected into the right food pad of Balb/c mice. Five days later, mononuclear cells from the draining popliteal lymph nodes were challenged with freeze-thawed CT26 cells, and IFN-γ secretion was assessed at 72 hrs.
FIG. 4C: Exogenous supply of CRT enhances the immunogenicity of CRT-negative dying cells. CT26 cells lacking CRT expression after depletion of CRT with a siRNA and mitoxantrone treatment or after mitomycin treatment were coated with rCRT (inserts) and then injected in the food pad, followed by assessment of the IFN-γ secretion by cells from the draining lymph nodes as in FIG. 4B.
as §1

[12] = intratumoural injection with etoposide or mitomycin C

| Molecule | effect on CRT exposure induced by anthracyclins and PP1/GADD34 inhibitors [1] | immunogenicity of cell death (protection against tumour growth, anti-tumour vaccination) [2] | phagocytosis of drug-treated tumour cells by DC ([3]; within a few hours after treatment) | time to CRT exposure in cytoplasts [4] [h] | CRT exposure on murine tumour cell lines [5] | CRT exposure on human tumour cell lines [6] | therapeutic effect of single agent on established tumours, immunocompetent mice [7] | therapeutic effect of single agent on established tumours, nu/nu mice [8] | restoration of phagocytosis by DC in CRT-siRNA cells ([3]; rCRT added to cell surface of CRT-siRNA transfected cells) | DC maturation [9] | immunogenicity of mitoxantrone-treated CT26 cells (efficacy of anti-tumour vaccination) ([10]; cells injected into the flank of Balb/c mice) | anti-tumour immune response to etoposide-treated cells coated with rCRT ([10]; etoposide-treated cells coated with rCRT) | anti-cancer immune response to rCRT-coated live cells ([10]; rCRT absorbed to cell surface without prior treatment with cell death inducers) | immunogenicity of mitoxantrone-treated CT26 cells (interferon-γ production by T cells from popliteal lymph node) ([11]; cells injected into the foot pad) | immunogenicity of mitomycin-treated cells coated with rCRT (IFN-γ) ([11]; rCRT absorbed to plasma membrane of mitomycin-treated cells) | effect of rCRT injected into a distant site ([7]; contralateral subcutaneous rCRT plus intratumoural etoposide) | therapeutic effect combined with a cell death inducer (etoposide or mitomycin C), immunocompetent mice [7, 12] | therapeutic effect combined with a cell death inducer (etoposide or mitomycin C), immunodeficient mice [8, 12] |
| --- | --- | --- | --- | --- | --- | --- | --- | --- | --- | --- | --- | --- | --- | --- | --- | --- | --- | --- |
| C/C1=C/C(=O)O[C@@H]2C[C@@H](CC[C@H](C)/C=C\C=C\CC1)O[C@@](O)([C@@H]1CSC(=O)N1)C2 [latrunculin A] | abolished | – | – | – | – | – | – | – | – | – | – | – | – | – | – | – | – | – |
| O=C1c2c(O)ccc(O)c2C(=O)c2c(NCCNCCO)ccc(NCCNCCO)c21 [mitoxantrone] | – | elicited immunogenic cell death | acquired the property to be phagocytosed by DC quickly | ≤ 1 | induced CRT exposure | induced CRT exposure | able to cause their permanent regression in some but not all cases | no cure | – | – | – | – | – | – | – | – | – | – |
| B1 | – | – | – | – | – | – | no major therapeutic effect | no major therapeutic effect | could reverse the defect induced by the CRT-specific siRNA | could not promote DC maturation ex vivo | this defect was restored | elicited a vigorous anti-tumour immune response in vivo | failed to elicit an anti-cancer immune response | this defect was restored | greatly enhanced the immunogenicity of cells that usually fail to induce an immune response | did not ameliorate the antitumoural effects of intratumorally injected etoposide | able to cause tumour regression | not in immunodeficient |

Reference: patent US8129340B2, “Inhibitors of protein phosphatase 1, GADD34 and protein phosphatase 1/GADD34 complex, preparation and uses thereof” (Institut Gustave Roussy, priority 2006, dated 2012)
